Patent publication US20220267469A1 (LIPUM, published 2022)
Changes are numbered by the printed parent chain. In names and notes the source's numbering stands.

T1: Mouse BSSL, recombinant (mouse, UniProt Q64285 21-599)
T1 construct: Bought (R&D Systems, Cat. no 5658-CE); also called mBSSL; murine BSSL
T1 sequence: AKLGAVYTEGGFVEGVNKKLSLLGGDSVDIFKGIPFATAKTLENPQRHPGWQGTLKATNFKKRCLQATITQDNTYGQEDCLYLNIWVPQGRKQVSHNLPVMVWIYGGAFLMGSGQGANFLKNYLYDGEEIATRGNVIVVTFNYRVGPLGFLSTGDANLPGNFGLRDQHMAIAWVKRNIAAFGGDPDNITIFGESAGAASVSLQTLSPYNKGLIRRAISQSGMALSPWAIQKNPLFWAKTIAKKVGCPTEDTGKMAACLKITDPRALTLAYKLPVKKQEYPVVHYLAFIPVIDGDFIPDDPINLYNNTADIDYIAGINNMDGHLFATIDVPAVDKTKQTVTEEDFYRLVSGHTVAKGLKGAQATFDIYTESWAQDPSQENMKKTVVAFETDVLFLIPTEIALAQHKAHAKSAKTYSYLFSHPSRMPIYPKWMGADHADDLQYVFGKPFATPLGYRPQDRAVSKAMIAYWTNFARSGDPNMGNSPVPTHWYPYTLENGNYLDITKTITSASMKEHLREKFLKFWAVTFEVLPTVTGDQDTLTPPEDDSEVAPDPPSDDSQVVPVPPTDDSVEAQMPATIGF

T2: Biotinylated human BSSL (human, UniProt P19835 21-753, Biotinylated on glycosacarides, 30-40 biotin/BSSL)
T2 construct: hBSSL biotinylated in house; also called b-hBSSL; human BSSL-biotin
T2 sequence: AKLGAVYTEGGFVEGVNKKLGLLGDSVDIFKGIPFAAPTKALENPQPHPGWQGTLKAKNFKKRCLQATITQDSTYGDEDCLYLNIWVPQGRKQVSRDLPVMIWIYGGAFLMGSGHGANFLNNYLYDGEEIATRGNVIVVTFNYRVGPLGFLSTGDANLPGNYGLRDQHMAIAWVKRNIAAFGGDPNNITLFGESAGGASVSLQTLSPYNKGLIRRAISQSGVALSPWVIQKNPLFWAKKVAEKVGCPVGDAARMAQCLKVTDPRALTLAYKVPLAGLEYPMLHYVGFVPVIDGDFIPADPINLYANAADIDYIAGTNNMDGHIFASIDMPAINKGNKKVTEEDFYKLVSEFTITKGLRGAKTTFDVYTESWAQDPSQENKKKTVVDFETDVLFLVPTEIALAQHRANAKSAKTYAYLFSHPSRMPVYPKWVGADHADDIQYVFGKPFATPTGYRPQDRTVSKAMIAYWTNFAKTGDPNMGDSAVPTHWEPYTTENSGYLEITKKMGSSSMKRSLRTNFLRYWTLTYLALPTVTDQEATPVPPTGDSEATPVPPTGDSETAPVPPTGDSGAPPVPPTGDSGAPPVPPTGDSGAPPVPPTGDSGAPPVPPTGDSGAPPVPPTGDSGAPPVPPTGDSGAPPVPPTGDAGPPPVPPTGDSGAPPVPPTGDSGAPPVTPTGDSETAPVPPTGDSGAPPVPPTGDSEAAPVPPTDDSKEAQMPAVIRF

T3: Human BSSL (bile salt-stimulated lipase), native (human, UniProt P19835 21-753)
T3 construct: Native full-length protein purified from human milk (Astra Hässle AB); also called hBSSL; non-biotinylated human BSSL
T3 sequence: T2 sequence

B1: S-SL048-14 hIgG4 S228P (antibody, V domains shown)
VH: QVQLVQSGAEVKKPGASVKVSCKASGYTFTSYNMHWVRQAPGQGLEWMGVINPGDGATSYAQKFKGRVTMTRDTSTSTVYMELSSLRSEDTAVYYCARDYYGSSPLGYWGQGTLVTVSS
VL: DIQMTQSPSSLSASVGDRVTITCRASPSISYLNWYQQKPGKAPKLLIYATSRLPSGVPSRFSGSGSGTDFTLTISSLQPEDFATYYCQQRSSSPTFGQGTKLEIK
notes: Tested as human IgG4 S228P
B2: S-SL048-74 hIgG4 S228P (antibody, V domains shown)
VH: B1 VH with M48I, K65Q
VL: B1 VL with P27Q, T50A, R52S, P54A, Q88H
notes: Tested as human IgG4 S228P
B3: S-SL048-131 hIgG4 S228P (antibody, V domains shown)
VH: B1 VH with M48I
VL: B1 VL with T50A, R52K, P54A, Q88H
notes: Tested as human IgG4 S228P
B4: S-SL048-109 hIgG4 S228P (antibody, V domains shown)
VH: B1 VH with G54S
VL: B1 VL with P54A
notes: Tested as human IgG4 S228P
B5: S-SL048-81 hIgG4 S228P (antibody, V domains shown)
VH: B1 VH with M48I, K65Q
VL: B1 VL with P27S, L32M, N33H, T50A, R52S, P54Q, Q88H
notes: Tested as human IgG4 S228P
B6: S-SL048-125 hIgG4 S228P (antibody, V domains shown)
VH: B1 VH with M48I, K65Q
VL: B1 VL with P27S, N33H, T50A, Q88H, S93Y
notes: Tested as human IgG4 S228P
B7: S-SL048-79 hIgG4 S228P (antibody, V domains shown)
VH: B1 VH with G54S, K65Q
VL: B1 VL with R24S, P27Q, T50A, Q88H, S93Y
notes: Tested as human IgG4 S228P
B8: S-SL048-10 hIgG4 S228P (antibody, V domains shown)
VH: B1 VH with M48I, G54S, A57Y, K65Q
VL: B1 VL
notes: Tested as human IgG4 S228P
B9: S-SL048-104 hIgG4 S228P (antibody, V domains shown)
VH: B1 VH with A61D
VL: B1 VL with R24S, P27S, N33H, T50A, P54A, Q88H, S93T
notes: Tested as human IgG4 S228P
B10: S-SL048-17 hIgG4 S228P (antibody, V domains shown)
VH: B1 VH with A57Y, A61T
VL: B1 VL with P27Q, T50A, R52K
notes: Tested as human IgG4 S228P
B11: S-SL048-107 hIgG4 S228P (antibody, V domains shown)
VH: B1 VH with A61N, K65Q
VL: B1 VL with R52S
notes: Tested as human IgG4 S228P
B12: S-SL048-108 hIgG4 S228P (antibody, V domains shown)
VH: B1 VH with M48I, G54S
VL: B1 VL with R24S, R52S, P54A
notes: Tested as human IgG4 S228P
B13: S-SL048-43 hIgG4 S228P (antibody, V domains shown)
VH: B1 VH with A61T, K65Q
VL: B1 VL with L32M, T50A, R52S
notes: Tested as human IgG4 S228P
B14: S-SL048-18 hIgG4 S228P (antibody, V domains shown)
VH: B1 VH with G54S, A61T
VL: B1 VL with P27S, P54Q, Q88H, S93T
notes: Tested as human IgG4 S228P

Tests used:
Mouse BSSL, recombinant = target: T1, Mouse BSSL, recombinant; assay: SPR steady state, hIgG4 S228P captured by anti-Fab
Method: (§1) Kinetic parameters of the hIgG4 S228P clones were determined by SPR using BIACORE® T200 (GE Healthcare). Single cycle kinetics was used to measure the affinity of the purified hIgG4 molecules to human and mouse BSSL. An anti-Fab antibody (GE Healthcare, #28958325) was immobilized on a CM5 S sensor chip by primary amine coupling using NHS-EDC chemistry. hIgG4 was captured by the anti-Fab antibody, and subsequently, five different concentrations of hBSSL (1:5 dilutions starting from 50 nM) or mBSSL (1:5 dilutions starting from 500 nM) were injected over the surface. The sensor chip surface was regenerated with 10 mM glycine-HCl pH 2.1. For binding to human BSSL, single cycle kinetic data was fitted to a 1:1 binding model and kinetic parameters were retrieved using software BlAevaluation. For mouse BSSL, a steady state analysis was performed by plotting the response level at equilibrium against each concentration, and KD values were retrieved by the BlAevalution software.

Biotinylated human BSSL [1] = target: T2, Biotinylated human BSSL; assay: flow cytometry displacement assay; 1.5 ug antibody, 1 ug b-hBSSL
Method: (§2) The 28 BSSL-specific hIgG4 antibodies and the five reference antibodies at different concentrations (ranging from 0.5 μg to 3.0 μg per reaction; see Table 10) were added to b-hBSSL (1 μg per reaction, see Table 2) in round-bottom polystyrene tubes, lx PBS (pH 7.4) was added to a final volume of 20 μl and the antibody/b-hBSSL mixtures were incubated for 30 min. at +4° C. to facilitate binding of antibodies to BSSL. Buffy coat (50 μl) was then added to each antibody/b-hBSSL mixture and incubation continued for another 30 min at +4° C. Thereafter, 2 ml of FACS lysing solution (BD Biosciences) was added and the cells were incubated for 10 min at room temperature in order to lyse erythrocytes and fix the white blood cells. The cells were then centrifuged for 5 min. at 200×g, the resulting pellets were washed by adding 2 ml of FACS buffer (1×PBS supplemented with 1% FCS and 0.1% NaN3) and centrifuged again. Finally, the supernatants were discarded and the cells were resuspended in the last drop of liquid, approximately 50 μl.
(§3) 5 μl of BV421-labelled anti-human CD14 (BD Biosciences) and 5 μl of BB515-labelled streptavidin (BD Biosciences) was added to each tube and incubated for 30 min, at +4° C., protected from light. Thereafter, cells were washed twice with FACS buffer, resuspended in 500 μl FACS buffer, and run on BD LSRII flow cytometer (BD Biosciences). Finally, data were analyzed using FlowJo software (BD Biosciences).

Biotinylated human BSSL [2] = target: T2, Biotinylated human BSSL; assay: flow cytometry displacement assay; 0.5 ug antibody, 1 ug b-hBSSL
Method: as §2, §3

[3] = target: T3, Human BSSL (bile salt-stimulated …); assay: SPR single cycle kinetics, hIgG4 S228P captured by anti-Fab
Method: as §1

Biotinylated human BSSL [4] = target: T2, Biotinylated human BSSL; assay: flow cytometry displacement assay; 3.0 ug antibody, 1 ug b-hBSSL
Method: as §2, §3

Biotinylated human BSSL [5] = target: T2, Biotinylated human BSSL; assay: flow cytometry displacement assay; 1.0 ug antibody, 1 ug b-hBSSL
Method: as §2, §3

Row | Binder | Kd (Mouse BSSL, recombinant) [nM] | percentage reduction of b-hBSSL binding to CD14+ monocytes (Biotinylated human BSSL [1]) [%] | percentage reduction of b-hBSSL binding to CD14+ monocytes (Biotinylated human BSSL [2]) [%] | Kd [3] [nM] | percentage reduction of b-hBSSL binding to CD14+ monocytes (Biotinylated human BSSL [4]) [%] | percentage reduction of b-hBSSL binding to CD14+ monocytes (Biotinylated human BSSL [5]) [%]
1 | B1 | 89 | 48 | 11 | 0.9 | 56 | 32
2 | B2 | 21 | 29 | – | 4.8 | 52 | –
3 | B3 | 63 | 31 | – | 2.7 | 58 | –
4 | B4 | 353 | 38 | – | 1.4 | 51 | –
5 | B5 | 60 | 31 | – | 4.4 | 62 | –
6 | B6 | 123 | 9 | – | 2.1 | 33 | –
7 | B7 | 48 | 20 | – | 5 | 52 | –
8 | B8 | 57 | 34 | – | 2.2 | 42 | –
9 | B9 | 111 | 2 | – | 3.3 | 44 | –
10 | B10 | 68 | 16 | – | 4.3 | 36 | –
11 | B11 | 98 | 37 | – | 1.2 | 49 | –
12 | B12 | 149 | 41 | – | 1.3 | 48 | –
13 | B13 | 137 | 37 | – | 1.2 | 55 | –
14 | B14 | 68 | 58 | – | 2.3 | 61 | –
